In patent US20230012273A1 (Boehringer Ingelheim, published 2023) one finds Kd, koff and kon data, which are given here for seven molecules.

Assay [1] has as its target T1, Human SIRPαV1 (NP_542970.1), Extracellular Domain + His-Tag (human, UniProt P78324 31-373).
T1 construct: also called huSIRPαV1; hSIRPαV1; not shown: His-Tag
Description: SPR, antibody captured on Protein A/G, ECD-His analyte, 1:1 fit. A digest of the protocol:
(§1)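 Analyte was His-tagged SIRPα extracellular domain in dilution series, associating 300 s and dissociating 600 s at 30 μl/min. Ligand was antibody captured (~240 RU) on immobilized Protein A/G (~3000 RU). Running buffer HBS-EP+.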
In general terms: In SPR one partner is held on a chip, and binding of the other changes the refractive index at the surface.

Assay [2] concerns the target T2, Human SIRPαV2 (CAA71403.1), Extracellular Domain + His-Tag (human, UniProt P78324 31-373).
T2 construct: also called huSIRPαV2; hSIRPαV2; not shown: His-Tag
Described as above. A digest of the protocol: as §1

Assay [3] concerns the target T3, cynoSIRPα (EGM_02252), Extracellular Domain + His-Tag (cynomolgus monkey).
T3 construct: also called CySIRPα EGM_02252; not shown: His-Tag
T3 chain: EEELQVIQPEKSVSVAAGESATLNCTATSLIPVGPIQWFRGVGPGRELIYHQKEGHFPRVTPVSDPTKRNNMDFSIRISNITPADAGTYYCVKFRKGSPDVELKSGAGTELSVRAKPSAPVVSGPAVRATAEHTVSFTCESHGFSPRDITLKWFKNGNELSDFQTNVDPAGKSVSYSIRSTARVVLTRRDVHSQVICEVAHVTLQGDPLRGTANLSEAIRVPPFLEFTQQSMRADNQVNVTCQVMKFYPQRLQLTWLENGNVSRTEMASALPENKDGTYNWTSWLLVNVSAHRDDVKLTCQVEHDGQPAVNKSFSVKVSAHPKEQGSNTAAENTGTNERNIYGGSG
Put plainly: SPR, antibody captured on Protein A/G, ECD-His analyte, steady-state fit. The method, then:
(§2) The binding kinetics of anti-SIRPα antibodies to various SIRPα analytes are determined by surface plasmon resonance (SPR) using a Biacore 8K+(Cytiva). 1×HBS-EP+(Cytiva) is used as running buffer and for all the dilutions unless stated otherwise. The Series S CM5 sensorchip is activated with a 1:1 mixture of 0.1 M NHS (N-hydroxysuccinimide) and 0.4 M EDC (1-Ethyl-3-(3-dimethylaminopropyl) carbodiimide hydrochloride) for 420 seconds at a flow rate of 10 μl/min and immobilized with Protein A/G (Thermo Scientific, 10 μg/ml in 10 mM acetate pH 4.5) for 420 seconds at a flowrate of 10 μl/min resulting in approximately 3000 RU of Protein A/G on the surface. The sensorchip is then deactivated with 1 M ethanolamine HCl pH 8.5 for 420 seconds at a flowrate of 10 μl/min.
(§3) Antibodies (approximately 1 ug/ml) are captured on the Protein A/G surface for 60 seconds at a flowrate of 10 μl/min resulting in capture levels of approximately 240 RU. Dilutions of each SIRP protein (Extracellular Domain+His-Tag, with the concentrations as indicated) are injected as analytes over the captured antibody for 300 seconds of association at a flowrate of 30 μl/min, followed by a dissociation for 600 seconds.
(§4) The above procedures are used to measure binding properties of antibodies of the present disclosure. For each analyte used, the highest concentration was as indicated in Example 3 (see Table 36).

Assay [4] deals with T4, cynoSIRPα (NP_001271679), Extracellular Domain + His-Tag (cynomolgus monkey).
T4 construct: also called CySIRPα NP_001271679; not shown: His-Tag
T4 chain: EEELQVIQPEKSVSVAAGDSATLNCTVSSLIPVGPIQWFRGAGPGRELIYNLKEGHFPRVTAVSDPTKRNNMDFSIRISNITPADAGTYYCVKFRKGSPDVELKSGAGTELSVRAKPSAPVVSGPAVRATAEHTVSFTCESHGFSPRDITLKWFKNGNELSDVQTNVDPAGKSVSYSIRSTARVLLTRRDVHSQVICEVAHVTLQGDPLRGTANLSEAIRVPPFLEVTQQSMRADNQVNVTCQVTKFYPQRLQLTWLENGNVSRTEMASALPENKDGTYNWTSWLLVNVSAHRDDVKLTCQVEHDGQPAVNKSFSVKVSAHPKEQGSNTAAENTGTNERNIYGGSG
The assay is described as above. Here is the method: as §2, §3, §4

Assay [5] has as its target T5, cynoSIRPα (XP_015313155), Extracellular Domain + His-Tag (cynomolgus monkey).
T5 construct: also called CySIRPα XP_015313155; not shown: His-Tag
T5 chain: T4 chain with A62P, V163F, L185V
The description is as above. Here is the method:
as §2, §3, §4

Numbering of substitutions follows the chain as printed.

T2 sequence (P78324 other isoform, or with tags, fused parts or gaps): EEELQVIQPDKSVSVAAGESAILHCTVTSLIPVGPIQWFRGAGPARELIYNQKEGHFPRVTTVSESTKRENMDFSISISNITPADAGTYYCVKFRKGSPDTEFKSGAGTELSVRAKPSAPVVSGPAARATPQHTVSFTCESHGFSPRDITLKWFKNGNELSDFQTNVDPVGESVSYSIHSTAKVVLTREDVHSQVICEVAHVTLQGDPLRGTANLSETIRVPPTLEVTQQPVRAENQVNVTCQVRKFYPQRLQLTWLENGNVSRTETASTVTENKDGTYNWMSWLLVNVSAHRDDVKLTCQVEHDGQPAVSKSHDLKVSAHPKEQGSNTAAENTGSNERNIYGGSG
T1 sequence (P78324 other isoform, or with tags, fused parts or gaps): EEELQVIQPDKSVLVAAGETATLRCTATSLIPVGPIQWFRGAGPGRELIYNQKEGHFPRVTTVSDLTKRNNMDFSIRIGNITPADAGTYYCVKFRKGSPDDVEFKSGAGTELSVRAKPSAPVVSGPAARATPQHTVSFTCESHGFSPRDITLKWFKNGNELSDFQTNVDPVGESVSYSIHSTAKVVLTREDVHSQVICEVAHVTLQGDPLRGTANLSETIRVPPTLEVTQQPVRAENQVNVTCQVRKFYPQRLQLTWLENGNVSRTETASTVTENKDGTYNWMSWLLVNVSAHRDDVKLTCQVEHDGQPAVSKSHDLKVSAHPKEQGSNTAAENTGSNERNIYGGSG

B1: Antibody A8 (antibody, human IgG1, kappa, L234A L235A, V domains shown)
VH: EVQLVESGGGLVQPGGSLRLSCAASGFTLSSYDMHWVRQAPGKGLEWVSAIGTAGDTYYTGSVKGRFTISRENAKNSLYLQMNSLRAGDTAVYYCVRGGVWDDAFDIWGQGTMVTVSS
VL: DIQMTQSPSSLSASVGDRVTITCRASQGINNYAAWFQQKPGKAPKSLIYTASSLHSGVPSKFSGSGSGTDFTLTISSLQPEDFATYYCQQYVSYPYTFGQGTKLEIKR
Broadly, the Kd is the concentration at which binding is half-saturated. By koff is commonly meant a measure of how fast the partners let go of each other. A word on the kon: it is a measure of how fast the partners come together. For B1, the Kd in assay [1] is 8.53 nM; in assay [2] it was 18.8 nM; in assay [3], 520 nM; in assay [4] it was 639 nM; in assay [5] it was 415 nM. Further, the values for the off-rate (koff) in assay [1] and in assay [2] were 0.00604 s⁻¹ and 0.0162 s⁻¹, respectively. The on-rate (kon) in assay [1] is 708000 M⁻¹ s⁻¹; in assay [2] it was 859000 M⁻¹ s⁻¹.

B2: Antibody A14 (antibody, human IgG1, kappa, L234A L235A, V domains shown)
VH: B1 VH with G88S
VL: B1 VL with G28D, A33L
As for B2, the Kd in assay [1] is 8.13 nM; in assay [2] it was 7.95 nM; in assay [3] it was 222 nM; in assay [4], 316 nM; in assay [5], 176 nM. The koff in assay [1] was 0.00397 s⁻¹; in assay [2], 0.00648 s⁻¹. The kon in assay [1] is 488000 M⁻¹ s⁻¹; in assay [2] it was 816000 M⁻¹ s⁻¹.

B3: Antibody A16 (antibody, human IgG1, kappa, L234A L235A, V domains shown)
VH: B1 VH
VL: B1 VL with G28D, A33L
B3: the Kd in assay [1] was 7.98 nM; in assay [2], 8.22 nM; in assay [3] it was 224 nM; in assay [4], 306 nM; in assay [5], 174 nM. Moreover, the koff in assay [1] was 0.00377 s⁻¹; in assay [2], 0.0063 s⁻¹. Moreover, the kon was 472000 M⁻¹ s⁻¹ in assay [1] and 766000 M⁻¹ s⁻¹ in assay [2].

B4: Antibody A9 (antibody, human IgG1, kappa, L234A L235A, V domains shown)
VH: B1 VH with G88D
VL: B1 VL with G28D, A33L
B4: the Kd in assay [1] worked out at 7.34 nM; in assay [2] it was 8.25 nM; in assay [3] it was 230 nM; in assay [4], 346 nM; in assay [5] it was 174 nM. In addition, the values for the koff in assay [1] and in assay [2] were 0.00363 s⁻¹ and 0.00652 s⁻¹, respectively. Also, the kon in assay [1] turned out to be 495000 M⁻¹ s⁻¹; in assay [2] it was 791000 M⁻¹ s⁻¹.

B5: Antibody A13 (antibody, human IgG1, kappa, L234A L235A, V domains shown)
VH: B1 VH with G88A
VL: B1 VL with G28D, A33L
With B5, the Kd in assay [1] amounted to 7.28 nM; in assay [2], 8.36 nM; in assay [3], 223 nM; in assay [4], 330 nM; in assay [5], 177 nM. Besides, the koff in assay [1] was 0.00352 s⁻¹; in assay [2], 0.00635 s⁻¹. The kon came out at 484000 M⁻¹ s⁻¹ in assay [1] and 760000 M⁻¹ s⁻¹ in assay [2].

B6: Antibody A15 (antibody, human IgG1, kappa, L234A L235A, V domains shown)
VH: B1 VH with G88E
VL: B1 VL with G28D, A33L
On to B6, for which the Kd in assay [1] came out at 7.06 nM; in assay [2], 7.91 nM; in assay [3], 224 nM; in assay [4], 317 nM; in assay [5], 174 nM. In addition, the koff in assay [1] was determined as 0.00371 s⁻¹; in assay [2], 0.00671 s⁻¹. The values for the kon in assay [1] and in assay [2] were 526000 M⁻¹ s⁻¹ and 848000 M⁻¹ s⁻¹, respectively.

B7: Antibody A12 (antibody, human IgG1, kappa, L234A L235A, V domains shown)
VH: B1 VH with P41T, G88S
VL: B1 VL with G28D, A33L
As for B7, the Kd in assay [1] is 7.83 nM; in assay [2], 8.96 nM; in assay [3], 247 nM; in assay [4] it was 384 nM; in assay [5], 195 nM. The off-rate constant (koff) was determined as 0.00378 s⁻¹ in assay [1] and 0.00689 s⁻¹ in assay [2]. Also, the figures for the kon in assay [1] and in assay [2] were 482000 M⁻¹ s⁻¹ and 769000 M⁻¹ s⁻¹, respectively.
